Source: patent US20180172683A1, “METHODS FOR ANALYZING THE INTERACTION BETWEEN A TARGET PROTEIN AND A LIGAND” (UNIVERSITY OF SOUTHERN CALIFORNIA, priority 2015, published 2018)
Ends that are not written are not given here.

B1: D1, mRNA-peptide fusion in the selection pool (HTSK) (peptide, not shown: a dimerising Fc or GST)
peptide: MIAISTIYNYKKAADHYAMTK
modifications: not fully specified; also: C-terminus joined via puromycin to DNA linker and reverse-transcribed mRNA
B2: D79, mRNA-peptide fusion in the doped selection pool (HTSK) (peptide, not shown: a dimerising Fc or GST)
peptide: MIDTNVILNYKKAADHFSITM
modifications: not fully specified; also: C-terminus joined via puromycin to DNA linker and reverse-transcribed mRNA
B3: E1, mRNA-peptide fusion in the selection pool (HTSK) (peptide, not shown: a dimerising Fc or GST)
peptide: MIETITIYNYKKAADHFSMSM
modifications: not fully specified; also: C-terminus joined via puromycin to DNA linker and reverse-transcribed mRNA

What follows are binders tested against B-cell lymphoma extra-large protein (Bcl-xL), first 209 amino acids with N-terminal avitag (UniProt Q07817) (assay: HTSK: from on- and off-rates of the mRNA-peptide fusion).
B-cell lymphoma extra-large protein (Bcl-xL), first 209 amino acids with N-terminal avitag, sequence (Q07817 other isoform, or with tags, fused parts or gaps): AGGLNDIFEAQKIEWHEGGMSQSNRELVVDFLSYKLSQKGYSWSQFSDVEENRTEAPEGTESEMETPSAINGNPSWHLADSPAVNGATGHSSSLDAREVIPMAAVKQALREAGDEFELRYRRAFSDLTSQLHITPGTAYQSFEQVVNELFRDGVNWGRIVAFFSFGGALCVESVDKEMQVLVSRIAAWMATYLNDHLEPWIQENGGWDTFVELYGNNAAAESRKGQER

Row | Kd [nM] | Binder
1 | 0.015 | B1
2 | 0.0024 | B2
3 | 0.023 | B3

The binders below were run against B-cell lymphoma extra-large protein (Bcl-xL), first 209 amino acids with N-terminal avitag (UniProt Q07817) (assay: HTSK: mRNA-peptide fusion pool on Bcl-xL beads, next-generation sequencing).

Row | koff [s⁻¹] | Binder
4 | 1e-06 | B1
5 | 3.3e-07 | B2
6 | 2.5e-06 | B3
